This is an account of results in patent US20250361296A1 (BIOCYTOGEN PHARMACEUTICALS BEIJING, published 2025).

The target in experiment [1] is T1, human SIGLEC15 on CHO-S-hSIGLEC15 cells (human, UniProt Q6ZMC9 20-328).
T1 sequence: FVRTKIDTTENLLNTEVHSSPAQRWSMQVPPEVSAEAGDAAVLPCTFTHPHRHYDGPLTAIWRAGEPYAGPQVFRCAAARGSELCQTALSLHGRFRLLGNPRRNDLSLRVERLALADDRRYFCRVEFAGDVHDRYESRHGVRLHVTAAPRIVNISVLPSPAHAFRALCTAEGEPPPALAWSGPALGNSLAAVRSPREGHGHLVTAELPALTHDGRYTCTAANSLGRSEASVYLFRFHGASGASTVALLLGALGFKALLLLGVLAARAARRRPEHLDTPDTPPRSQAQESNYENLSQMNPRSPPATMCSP
Put plainly: flow cytometry (MFI) on CHO-S-hSIGLEC15 cells; antibody sample: pH 3.5 6 h. Here is the method: (§1) In the activity detection experiment, 30 μL of CHO-S-hSIGLEC15 cells were added to the culture plate, and the antibody to be tested was added in a gradient dilution ([…]), and incubated at 4° C. for 30 min. The plate was washed with PBS, and diluted secondary antibody Anti-hIgG-Fc-Alex Flour 647 (RL1-H) (1:2000) was added, incubated at 4° C. for 30 min. The plate was washed once with PBS and the cells were resuspended for flow cytometry detection. MFI value was derived by FlowJo 7.6.1 analysis to calculate EC50.

For experiment [2], the target named is T1, human SIGLEC15 on CHO-S-hSIGLEC15 cells. Put plainly: flow cytometry (MFI) on CHO-S-hSIGLEC15 cells; antibody sample: 0 d. Here is the method: as §1
(In general: Flow cytometry measures light scatter and fluorescence of single cells or particles in a stream.)

The target is the same in experiment [3]. Description: flow cytometry (MFI) on CHO-S-hSIGLEC15 cells; antibody sample: freeze 10. Here is the method:
as §1

Experiment [4] shares this target. Description: flow cytometry (MFI) on CHO-S-hSIGLEC15 cells; antibody sample: 25° C. 7 d. Here is the method: as §1
Experiment [5] has the same target. Put plainly: flow cytometry (MFI) on CHO-S-hSIGLEC15 cells; antibody sample: 40° C. 7 d. Here is the method: as §1
Experiment [6] shares this target. Description: flow cytometry (MFI) on CHO-S-hSIGLEC15 cells; antibody sample: pH 3.5 0 h. Here is the method: as §1
Experiment [7] shares this target. Put plainly: flow cytometry (MFI) on CHO-S-hSIGLEC15 cells; antibody sample: freeze 1. Here is the method:
as §1

For experiment [8] the target is unchanged. Description: flow cytometry (MFI) on CHO-S-hSIGLEC15 cells; antibody sample: 4° C. 7 d. Here is the method: as §1

As usually defined, the EC50 is the concentration at which the effect is half-maximal. A higher EC50 goes with weaker potency.

B1: one-armed anti-SIGLEC15 antibody 10C9-S, human IgG1-N297A (antibody)
heavy: not shown
chain: DKTHTCPPCPAPELLGGPSVFLFPPKPKDTLMISRTPEVTCVVVDVSHEDPEVKFNWYVDGVEVHNAKTKPREEQYASTYRVVSVLTVLHQDWLNGKEYKCKVSNKALPAPIEKTISKAKGQPREPQVCTLPPSREEMTKNQVSLSCAVKGFYPSDIAVEWESNGQPENNYKTTPPVLDSDGSFFLVSKLTVDKSRWQQGNVFSCSVMHEALHNHYTQKSLSLSPGK
light: DIQLTQSPLSSPVTLGQPASISCRSSQSLVNSDGETFLSWLQQRPGQPPRLLIYKISNRFSGVPDRFSGSGAGTDFTLKISRVEAEDVGVYYCMQATQFPHTFGQGTKLEIKRTVAAPSVFIFPPSDEQLKSGTASVVCLLNNFYPREAKVQWKVDNALQSGNSQESVTEQDSKDSTYSLSSTLTLSKADYEKHKVYACEVTHQGLSSPVTKSFNRGEC
notes: One-armed format; It has a full-length heavy chain with the knob (T366W), a single Fc fragment with the hole mutations (T366S, L368A, Y407V), and a full-length light chain
As to B1, the EC50 in experiment [1] turned out to be 2.05 µg/mL; in experiment [2], 1.79 µg/mL; in experiment [3], 1.67 µg/mL; in experiment [4], 1.64 µg/mL; in experiment [5], 1.55 µg/mL; in experiment [6], 1.66 µg/mL. Moreover, the concentration giving a half-maximal response (EC50) worked out at 1.46 µg/mL in experiment [7] and 1.63 µg/mL in experiment [8].
